Patent publication US7067474B1, “Agents for treating human illnesses based on β-catenin, and the production and use thereof” (Max-Delbruck-Centrum fur Molekulare Medizin, priority 1998, dated 2006)
Changes are numbered by the printed parent chain. Entries after “also recorded” stand apart in the source; their conditions may differ. Structures can show the parent of a compound that is named as a salt. Each block holds one molecule with its values, some of them ahead of it. Where no end group is shown, it is not given here.

Assays:
Assay type in all cases: binding
[1] = target: T1, LEF-1/β-catenin interaction (Homo sapiens, UniProt P35222); experiment: ELISA: inhibition of complex formation of LEF-1 and β-catenin; conditions: for inhibition of the interaction between LEF-1 and β-catenin (complex formation): synthetic peptides, 100 μM to 0.3 μM
T1 construct: made in house; host or cells: bacteria
T1 sequence (P35222 1-781): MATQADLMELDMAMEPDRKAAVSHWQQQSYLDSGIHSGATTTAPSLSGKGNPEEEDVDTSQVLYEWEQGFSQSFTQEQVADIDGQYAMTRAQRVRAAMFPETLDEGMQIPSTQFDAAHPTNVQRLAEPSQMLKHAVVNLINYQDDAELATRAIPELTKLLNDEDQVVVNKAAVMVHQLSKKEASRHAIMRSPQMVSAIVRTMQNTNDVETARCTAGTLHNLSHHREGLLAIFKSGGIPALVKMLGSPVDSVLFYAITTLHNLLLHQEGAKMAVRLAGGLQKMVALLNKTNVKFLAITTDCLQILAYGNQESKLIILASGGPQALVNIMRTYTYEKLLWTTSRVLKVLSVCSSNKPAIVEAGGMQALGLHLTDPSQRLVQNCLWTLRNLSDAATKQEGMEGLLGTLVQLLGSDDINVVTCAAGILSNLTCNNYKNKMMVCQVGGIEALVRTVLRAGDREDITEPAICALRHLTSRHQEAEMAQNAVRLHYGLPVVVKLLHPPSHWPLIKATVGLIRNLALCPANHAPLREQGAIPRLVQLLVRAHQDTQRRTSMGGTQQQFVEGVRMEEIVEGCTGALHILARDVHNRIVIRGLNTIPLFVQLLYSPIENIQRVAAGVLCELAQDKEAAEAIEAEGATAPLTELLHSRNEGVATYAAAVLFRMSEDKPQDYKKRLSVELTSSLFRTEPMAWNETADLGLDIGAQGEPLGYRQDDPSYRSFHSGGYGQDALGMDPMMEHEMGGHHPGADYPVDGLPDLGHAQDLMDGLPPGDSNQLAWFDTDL
Excerpt: Both proteins were produced in bacteria recombinantly with N-terminal histidine sequences, purified by means of nickel chromatography for quantifying the inhibition of the LEF-1/β-catenin interaction by synthetic peptides and (Behrens et al. 1996). The peptides were produced by the company Biosyntan with the aid of a PSSM-8 automaton (Shimadzu, Japan) applying the Fmoc/But strategy (E. Atherton and R. C. Sheppard. 1989 IRL Press. Oxford: “Solid phase peptide synthesis—a practical approach”). Approx. 50 ng of LFF-1 were absorbed in the wells of ELISA plates for 90 minutes at room temperature. Subsequently, the wells were covered with 5% dry milk powder in PBS for 16 hours at 4° C. All further steps were carried out at room temperature in PBS with 50 mM Tris HCl (pH 7.5). After washing the wells with PBS the peptide dilutions were added. The incubation with 50–100 ng of β-catenin was carried out for 10 minutes in the presence of […] BSA. The complex formation of LEF-1 and β-catenin was detected by the antibody PA2 against the carboxy terminal area of β-catenin (Huelsken et al. 1994). PA2 was added in a standard dilution of 1:5000 in 3% of dry milk powder in PBS for 10 minutes. After washing the wells with PBS a quantification was carried out by detection antibodies conjugated by peroxidase (1: 2500 in 3% of dry milk powder in PBS, Dianova) and the conversion of o-phenylenediamine was determined by photometric measurement at […]. The peptides were used in concentrations of 100 μM to 0.3 μM. To check the specificity of the inhibition of the LEF-1/β-catenin interaction β-catenin was absorbed in the wells and detected by means of the same antibodies in the presence and absence of the peptides (FIGS. 2 and 3).
For a mutation analysis of the peptides the indicated amino acids were substituted by alanine during the synthesis. The inhibition of the complex formation of β-catenin and LEF-1 was quantified as has been already described (FIG. 2).

LEF-1 = target: T2, LEF-1 (Mus musculus, UniProt P27782); experiment: yeast 2-hybrid: interaction of β-catenin mutants with LEF-1; conditions: for interaction with LEF-1/TCF-4: β-catenin mutation, in words
T2 construct: the cDNA of LEF-1 for the amino acids 1–99; expressed in transfected cells; host or cells: yeast (two-hybrid, Matchmaker, Clontech)
T2 sequence (P27782 1-99): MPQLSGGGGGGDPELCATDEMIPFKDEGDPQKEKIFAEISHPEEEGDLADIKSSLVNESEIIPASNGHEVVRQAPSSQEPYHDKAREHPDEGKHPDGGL
Experimental: (§1) The mutagenesis of β-catenin in the armadillo repeats 3–8 was carried out by means of the “mutagenesis kit” of the company Clontech according to the producer's record and the mutants were checked by sequencing (FIG. 5). In all mutants the original amino acid was substituted by alanine. For analyzing the interactions the cDNA of human β-catenin (armadillo repeat 3 up to the C-terminal end of the protein) coding for the amino acids Leu218–Leu7 μl or its mutants was cloned into the fusion vector for the activation domain of Gal-4 (pGAD424, Clontech). The cDNA for the binding domains of the interaction partners was cloned into the Lex-A fusion vector BTM 116. To this end, the cDNA of LEF-1 for the amino acids 1–99, conductin for the amino acids Ala342–ARG465; of human APC for the amino acids His1012–Glu1215 (APC 15 amino acid repeats) and for the amino acids Ser1259Asp 1400 (APC 20 amino acid repeats) and E-cadherin for the amino acids Gin773–Asp884 (cytoplasmatic domain) were amplified with the respective primers PCR. The interaction of the Lex-A hybrids with β-catenin and its mutants was quantified by means of the β-galactosidase reporter activity in the yeast 2-hybrid system (report: “Matchmaker”. Clontech) (Tab. 2 and FIG. 6).

[2] = target: T3, APC (20 amino acid repeats) (Homo sapiens, UniProt P25054); experiment: yeast 2-hybrid: interaction of β-catenin mutants with APC 20 amino acid repeats; conditions: yeast 2-hybrid, alanine mutants
T3 construct: for the amino acids Ser1259Asp 1400 (APC 20 amino acid repeats); expressed in transfected cells; host or cells: yeast (two-hybrid, Matchmaker, Clontech)
T3 sequence (P25054 1253-1394 limits assumed): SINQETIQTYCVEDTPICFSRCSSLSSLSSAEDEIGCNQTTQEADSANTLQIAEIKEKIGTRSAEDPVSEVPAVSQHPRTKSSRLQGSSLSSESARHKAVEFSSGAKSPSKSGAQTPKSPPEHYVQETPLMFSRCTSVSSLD
Experimental: as §1

[3] = target: T4, APC (15 amino acid repeats) (Homo sapiens, UniProt P25054); experiment: yeast 2-hybrid: interaction of β-catenin mutants with APC 15 amino acid repeats; conditions: for Interaction With APC-15, share of wild type β-catenin interaction: yeast 2-hybrid, alanine mutants
T4 construct: of human APC for the amino acids His1012–Glu1215 (APC 15 amino acid repeats); expressed in transfected cells; host or cells: yeast (two-hybrid, Matchmaker, Clontech)
T4 sequence (P25054 1006-1209 limits assumed): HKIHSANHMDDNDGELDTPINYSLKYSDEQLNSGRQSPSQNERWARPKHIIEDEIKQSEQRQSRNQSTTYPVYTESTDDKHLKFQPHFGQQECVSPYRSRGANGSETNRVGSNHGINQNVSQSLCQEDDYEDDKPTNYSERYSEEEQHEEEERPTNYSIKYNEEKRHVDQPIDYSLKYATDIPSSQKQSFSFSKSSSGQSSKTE
Experimental: as §1

conductin = target: T5, conductin (Mus musculus, UniProt O88566); experiment: yeast 2-hybrid: interaction of β-catenin mutants with conductin; conditions: yeast 2-hybrid, alanine mutants
T5 construct: conductin for the amino acids Ala342–ARG465; expressed in transfected cells; host or cells: yeast (two-hybrid, Matchmaker, Clontech)
T5 sequence (O88566 343-465 limits assumed): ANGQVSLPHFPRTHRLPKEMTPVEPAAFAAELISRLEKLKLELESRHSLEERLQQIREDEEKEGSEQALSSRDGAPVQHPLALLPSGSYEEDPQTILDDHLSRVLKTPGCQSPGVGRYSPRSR
Experimental: as §1

E-cadherin = target: T6, E-cadherin (Mus musculus, UniProt P09803); experiment: yeast 2-hybrid: interaction of β-catenin mutants with E-cadherin; conditions: alanine mutants
T6 construct: E-cadherin for the amino acids Gin773–Asp884 (cytoplasmatic domain); expressed in transfected cells; host or cells: yeast (two-hybrid, Matchmaker, Clontech)
T6 sequence (P09803 773-884): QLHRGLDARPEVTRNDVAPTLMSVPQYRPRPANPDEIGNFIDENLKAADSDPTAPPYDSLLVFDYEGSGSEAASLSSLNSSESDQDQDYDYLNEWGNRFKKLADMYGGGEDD
Experimental: as §1

Molecule: Ile35–Val56: peptide of LEF-1 with the amino acids Ile35–Val56 (IFAEISHPEEEGDLADIKSSLV)
inhibition of the interaction between LEF-1 and β-catenin (complex formation) [1]: does not inhibit complex formation

Molecule: ELCATDEMIPFKDE [14–27]
inhibition of the interaction between LEF-1 and β-catenin (complex formation) [1]: inhibit specifically

Molecule: Asp15: synthetic hTCF-4 N-terminal peptide with Asp15 substituted by alanine (GGDDLGANAELISFKDEGEQEEK)
inhibition of the interaction between LEF-1 and β-catenin (complex formation) [1]: stopping the inhibition

Molecule: Phe20: synthetic hTCF-4 N-terminal peptide with Phe20 substituted (GGDDLGANDELISAKDEGEQEEK)
inhibition of the interaction between LEF-1 and β-catenin (complex formation) [1]: has the same effect

B1: Lys 435: human β-catenin mutant, Lys 435 substituted by alanine (arm 8) (protein)
chain: LHNLSHHREGLLAIFKSGGIPALVKMLGSPVDSVLFYAITTLHNLLLHQEGAKMAVRLAGGLQKMVALLNKTNVKFLAITTDCLQILAYGNQESKLIILASGGPQALVNIMRTYTYEKLLWTTSRVLKVLSVCSSNKPAIVEAGGMQALGLHLTDPSQRLVQNCLWTLRNLSDAATKQEGMEGLLGTLVQLLGSDDINVVTCAAGILSNLTCNNYKNAMMVCQVGGIEALVRTVLRAGDREDITEPAICALRHLTSRHQEAEMAQNAVRLHYGLPVVVKLLHPPSHWPLIKATVGLIRNLALCPANHAPLREQGAIPRLVQLLVRAHQDTQRRTSMGGTQQQFVEGVRMEEIVEGCTGALHILARDVHNRIVIRGLNTIPLFVQLLYSPIENIQRVAAGVLCELAQDKEAAEAIEAEGATAPLTELLHSRNEGVATYAAAVLFRMSEDKPQDYKKRLSVELTSSLFRTEPMAWNETADLGLDIGAQGEPLGYRQDDPSYRSFHSGGYGQDALGMDPMMEHEMGGHHPGADYPVDGLPDLGHAQDLMDGLPPGDSNQLAWFDTDL
modifications: left off: large carriers; small tags and cut ends
Interaction With LEF-1, share of wild type β-catenin interaction (LEF-1; yeast 2-hybrid, alanine mutants): — (Interactions marked by — correspond to 60–100% of the wild type interaction) | interaction with LEF-1/TCF-4 (LEF-1): blocking the interaction | Interaction With APC-20, share of wild type β-catenin interaction [2]: — (Interactions marked by — correspond to 60–100% of the wild type interaction) | Interaction With APC-15, share of wild type β-catenin interaction [3]: 30% | Interaction With Conductin, share of wild type β-catenin interaction (conductin): 42% | Interaction With E-Cadherin, share of wild type β-catenin interaction (E-cadherin): — (Interactions marked by — correspond to 60–100% of the wild type interaction)

B3: His 470: human β-catenin mutant, His 470 substituted by alanine (arm 8) (protein)
chain: B1 chain with A218K, H253A
modifications: left off: large carriers; small tags and cut ends
interaction with LEF-1/TCF-4 (LEF-1): blocking the interaction; also recorded: no interaction with LEF-1/TCF-4 | Interaction With APC-20, share of wild type β-catenin interaction [2]: 47% | Interaction With APC-15, share of wild type β-catenin interaction [3]: 60% | Interaction With Conductin, share of wild type β-catenin interaction (conductin): — (Interactions marked by — correspond to 60–100% of the wild type interaction) | Interaction With E-Cadherin, share of wild type β-catenin interaction (E-cadherin): — (Interactions marked by — correspond to 60–100% of the wild type interaction)

Further lines, with some results ahead:

inhibition of the interaction between LEF-1 and β-catenin (complex formation) [1]: stopping the inhibition
Molecule: Asp10: synthetic hTCF-4 N-terminal peptide with Asp10 substituted by alanine (GGDALGANDELISFKDEGEQEEK)

inhibition of the interaction between LEF-1 and β-catenin (complex formation) [1]: stopping the inhibition
Molecule: Asp22: synthetic hTCF-4 N-terminal peptide with Asp22 substituted by alanine (GGDDLGANDELISFKAEGEQEEK)

inhibition of the interaction between LEF-1 and β-catenin (complex formation) [1]: inhibit specifically
Molecule: GDPELCATDEMIPFKDEGDPQKEK [11–34]

inhibition of the interaction between LEF-1 and β-catenin (complex formation) [1]: has the same effect
Molecule: Lys21: synthetic hTCF-4 N-terminal peptide with Lys21 substituted (GGDDLGANDELISFADEGEQEEK)

IC50 ([1]; recombinant purified proteins, 15–250 μM, FIG. 9, read-out: IC50, reduction of the complex formation of LEF-1 and β-catenin): 25 µM
Molecule: Cn1nnnc1SCC1=C(C(=O)O)N2C(=O)C(NC(=O)[C@@H](O)c3ccccc3)C2SC1 (stereo partly drawn) [cefamandole, CEFAMANDOLESODIUM SALT, reference compound]

Interaction With APC-15, share of wild type β-catenin interaction [3]: 12% | interaction with APC 15aa ([3]; β-catenin mutation, in words): no interaction with APC 15aa | Interaction With Conductin, share of wild type β-catenin interaction (conductin): 45%
B2: Arg 386: human β-catenin mutant, Arg 386 substituted by alanine (arm 6) (protein)
chain: B1 chain with R169A, A218K
modifications: left off: large carriers; small tags and cut ends
Interaction With E-Cadherin, share of wild type β-catenin interaction (E-cadherin): — (Interactions marked by — correspond to 60–100% of the wild type interaction)
